We go through one molecule from paper PMC7616481, “The functional evolution of collembolan Ubx on the regulation of abdominal appendage formation”.

Series [1] concerns the target FcUbx isoform 2 (FcU2, FcUbx2), N-terminally truncated (Folsomia candida, UniProt A0AA96CC73 39-288). The series is described as follows: EMSA; 0.4-3 pmol FcU2; 20 ul with EMSA buffer (5x: 0.1 M Tris, 25% glycerol, 0.2 mg/ml BSA), MgCl2 (2.5 M stock), DTT (1 M stock), poly(dI-dC), 20 ng Cy5 probe; 25 min at 25 C; 12% native PAGE on ice; pH not stated. The settings on record: protein: recombinant; tags: GST; label: 5'-Cy5 (both strands). A general note: A gel shift assay detects complexes by their altered migration in electrophoresis.

Series [2] deals with FcUbx isoform 1 (FcU1, FcUbx1), N-terminally truncated (Folsomia candida, UniProt A0AA95ZMF5 39-293). In words: EMSA; 0.2-1.5 pmol FcU1; 20 ul with EMSA buffer (5x: 0.1 M Tris, 25% glycerol, 0.2 mg/ml BSA), MgCl2 (2.5 M stock), DTT (1 M stock), poly(dI-dC), 20 ng Cy5 probe; 25 min at 25 C; 12% native PAGE on ice; pH not stated. The note with it: protein: recombinant; tags: GST; label: 5'-Cy5 (both strands).

B1: DMXR (dsDNA)
DNA 1: GACAATATTTGGGAAATTAAATCATTCCCGCGGACAGTTTTATAGTGC
DNA 2: GCACTATAAAACTGTCCGCGGGAATGATTTAATTTCCCAAATATTGTC
On to B1, for which the binding result in series [1] and in series [2] was “binds” throughout.
